Patent US8784821 (Amgen, dated 2014)

T1: recombinant soluble extracellular domain of the human CD3 epsilon chain with His6 tag, expressed alone (human)
T1 construct: also called recombinant CD3-epsilon antigen; rCD3-epsilon
T1 chain: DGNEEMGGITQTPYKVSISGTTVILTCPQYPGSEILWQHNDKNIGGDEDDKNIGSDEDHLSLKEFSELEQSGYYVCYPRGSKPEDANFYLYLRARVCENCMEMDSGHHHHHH


Experiments:
BSA (blocking agent) = target: T2, BSA (blocking agent) (UniProt P02769 25-607); experiment: ELISA on uncoated plates blocked with PBS 3% BSA, periplasmic preparation
T2 construct: Specificity control of the ELISA
Method: (§1) FIG. 15: ELISA-analysis of periplasmic preparations containing Flag-tagged scFv protein fragments from selected clones. […] Detection was performed by a monoclonal anti-Flag antibody followed by a peroxidase-conjugated polyclonal goat anti-mouse antibody. The ELISA was developed by an ABTS-substrate solution as described in example 3. The OD-values (Y-axis) were measured at 405 nm by an ELISA-reader. Clone numbers are presented on the X-axis, where the first number of the clone number indicates the round of panning in which the respective clone was obtained, while the second number indicates the respective clone of this round. Periplasmic preparation from cells producing the anti-CD3 scFv L2K was included, as well as the purified anti-CD3 antibodies UCHT1, SP34 and OKT3 (concentration of each 1 µg/ml).
(§2) ELISA experiments were carried out by coating the recombinant CD3 epsilon on wells of 96 well plastic plates (Nunc, maxisorb) typically at 4° C. over night. […] After removal of the blocking solution, PPPs and control solutions were added to the wells and incubated for typically one hour at room temperature. The wells were then washed three times with PBS/0.05% Tween 20. Detection of scFvs and control antibodies bound to immobilized antigen was Carried out using a monoclonal murine anti-His6 or anti FLAG-tag antibody (Qiagen anti-PentaHis and M2 anti Flag Sigma, typically each at a final concentration of 1 µg/ml PBS) detected with a peroxidase-labeled polyclonal goat anti- (mouse Fab-fragment) antibody (Dianova, 1 µg/ml PBS). The signal was developed by adding ABTS substrate solution and measured at a wavelength of 405 nm. Unspecific binding of the test-samples to the blocking agent was examined by carrying out the identical assays with the identical reagents and identical timing on ELISA plates which were not coated but blocked with BSA, only.

[1] = target: T3, human CD3 complex, native, on CD3-positive human T cells (human, UniProt P07766 23-207; P09693 23-182; P04234 22-171); experiment: conclusion from ELISA (FIGS. 14 and 15) and flow cytometry on Jurkat cells
T3 construct: whole, on cells; Presented as part of the TCR/CD3 complex on Jurkat cells (flow cytometry) and on the CD4-positive T cell clone CB15 (cytotoxicity assays); also called CD3 on Jurkat cells; CD3+ Jurkat cells
Target sequence in this assay (P07766 23-207, chain 1 of 3): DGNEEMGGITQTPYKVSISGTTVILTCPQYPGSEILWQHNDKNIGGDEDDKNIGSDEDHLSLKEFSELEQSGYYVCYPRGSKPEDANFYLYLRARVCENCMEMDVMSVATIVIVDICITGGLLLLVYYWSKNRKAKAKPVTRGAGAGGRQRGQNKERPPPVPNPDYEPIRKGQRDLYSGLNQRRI
Target sequence in this assay (P09693 23-182, chain 2 of 3): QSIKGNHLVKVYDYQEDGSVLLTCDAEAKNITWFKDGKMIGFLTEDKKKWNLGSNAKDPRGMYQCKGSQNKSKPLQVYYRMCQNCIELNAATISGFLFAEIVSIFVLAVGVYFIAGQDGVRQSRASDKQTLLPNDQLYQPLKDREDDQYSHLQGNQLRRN
Target sequence in this assay (P04234 22-171, chain 3 of 3): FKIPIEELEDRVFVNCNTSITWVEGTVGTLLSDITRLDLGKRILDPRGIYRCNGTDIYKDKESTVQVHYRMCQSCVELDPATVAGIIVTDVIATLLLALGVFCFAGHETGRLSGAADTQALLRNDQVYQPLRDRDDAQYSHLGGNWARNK

[2] = target: T1, recombinant soluble extracellular …; experiment: ELISA on coated recombinant CD3-epsilon, periplasmic preparation, anti-Flag detection
Method: as §1, with “14: CD3-specific” for “15:”, “Example” for “example”
as §2

[3] = target: T3, human CD3 complex, native, on …; experiment: flow cytometry screening on Jurkat cells, periplasmic preparation
Method: Periplasmic preparations of soluble scFv protein fragments were added to CD3-positive Jurkat cells. Detection was performed by a 1.0 monoclonal anti-Flag antibody followed by a PE-labeled polyclonal anti-mouse antibody. ScFvs binding to cells was measured by an increase in fluorescence intensity as compared to cells that were incubated with PBS alone: Fluorescence intensity is blotted on the X-axis, the number of events is blotted on the Y-axis. The negative control is shown in black, the respective scFvs are shown in gray. Shifting to the right indicates positive binding to the cells. Periplasmic preparation from cells producing the anti-CD3 scFv L2K was included, as well as the purified anti-CD3 antibodies UCHT1, SP34 and OKT3 (concentration of each 5 µg/ml).
Target sequence in this assay (P09693 23-182, chain 2 of 2): as the sequence (P09693 23-182, chain 2 of 3) above
Target sequence in this assay (P04234 22-171, chain 3 of 2): as the sequence (P04234 22-171, chain 3 of 3) above

T2 sequence (P02769 25-607 limits assumed): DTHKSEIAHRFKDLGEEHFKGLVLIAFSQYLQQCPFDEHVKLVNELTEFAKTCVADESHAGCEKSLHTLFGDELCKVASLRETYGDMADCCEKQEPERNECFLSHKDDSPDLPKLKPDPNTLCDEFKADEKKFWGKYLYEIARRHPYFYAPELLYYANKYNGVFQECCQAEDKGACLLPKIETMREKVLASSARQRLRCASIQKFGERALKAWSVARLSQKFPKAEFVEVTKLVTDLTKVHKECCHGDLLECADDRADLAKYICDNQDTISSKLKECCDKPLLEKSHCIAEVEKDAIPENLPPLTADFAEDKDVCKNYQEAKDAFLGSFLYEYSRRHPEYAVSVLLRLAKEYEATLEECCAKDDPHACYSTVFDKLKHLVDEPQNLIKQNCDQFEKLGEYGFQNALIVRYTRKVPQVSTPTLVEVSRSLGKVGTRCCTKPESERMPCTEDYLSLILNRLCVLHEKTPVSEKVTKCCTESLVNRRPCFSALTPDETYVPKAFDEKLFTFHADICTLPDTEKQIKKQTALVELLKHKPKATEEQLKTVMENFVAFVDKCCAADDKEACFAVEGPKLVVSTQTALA

| binding result (BSA (blocking agent)) | binding result [1] | binding result [2] | binding result [3] | Binder |
| --- | --- | --- | --- | --- |
| no binding | – | – | – | human anti-human CD3 scFv 3-271 (FLAG-tagged) (scFv, VH-(G4S1)3-VL scFv from huLIB-STE, tested as crude periplasmic preparation) scFv: ELQLVEWGAGLLKPSETLSLTCAVYGGSFSGYYWSWIRQPPGKGLEWIGEINHSGSTNYNPSLKSRVTISVDTSKNQFSLKLSSVTAADTAVYYCARGPDRMGHGFDIWGQGTMVTVSSGGGGSGGGGSGGGGSELQMTQSPSSLSASVGDRVTITCRASQSISSYLNWYQQKSGKAPKLLIYAASSLQSGVPSRFSGSGSGTDFTLTISSLQPEDFATYYCQQSYSSPWTFGQGTKVEIKTGDYKDDDDK |
| no binding | binds | binds | – | human anti-human CD3 scFv 4-10 (FLAG-tagged) (scFv, VH-(G4S1)3-VL scFv from huLIB-ST, tested as crude periplasmic preparation; Flag-tag put at the C-terminus because it replaces the vector's His6-tag; also called construct 4-10) scFv: ELQLVESGGGLVQPGGSLRLSCAASGFTFSSYAMGWVRQAPGKGLEWVSAVSGSGGSTYYADSVKGRFTISRDNSKNTLYLQMNSLRAEDTAVYYCAKAKFLGHYYGMDVWGQGTTVTVSSGGGGSGGGGSGGGGSELQMTQSPSSLSASVGDRVTITCRASQSISSYLNWYQQKPGKAPKLLIYAASSLQSGVPSRFSGSGSGTEFTLTISSLQPEDFATYYCLQHNAYPYTFGQGTKVEIKTGDYKDDDDK |
| no binding | binds | binds | – | human anti-human CD3 scFv 3-114 (FLAG-tagged) (scFv, VH-(G4S1)3-VL scFv from huLIB-ST, tested as crude periplasmic preparation) scFv: ELQLVESGGGLVKPGRSLRLSCTASGFTFGDYAMSWFRQAPGKGLEWVGFIRSKAYGGTTEYAASVKGRFTISRDDSKSIAYLQMNSLKTEDTAVYYCTPQLWLLQDAFDIWGQGTMVTVSSGGGGSGGGGSGGGGSELQMTQSPSSLSASVGDRVTITCRASQGISNYLAWYQQKPGKVPKLLIYAASTLQSGVPSRFSGSGSGTDFTLTISSLQPEDFATYYCQQSYSTPPTFGQGTKLEIKTGDYKDDDDK |
| no binding | binds | binds | – | human anti-human CD3 scFv 3-106 (FLAG-tagged) (scFv, VH-(G4S1)3-VL scFv from huLIB-ST, tested as crude periplasmic preparation) scFv: ELQLVESGGGVVQPGRSLRLSCAASGFTFSSYGMHWVRQAPGKGLEWVAVISYDGSNKYYADSVKGRFTISRDNSKNTLYLQMNSLRSEDTAVYYCARLSPYCTNGVCWDAFDIWGQGTMVTVSSGGGGSGGGGSGGGGSELQMTQSPSSLSASVGDRVSITCRASQTISNYLNWYQLKPGKAPKLLIYAASTLQSEVPTRFSGSGSGTDFTLTISGLHPEDFATYYCQQFNSYPRTFGQGTKVEIKTGDYKDDDDK |
| no binding | – | binds | binds | human anti-human CD3 scFv 4-48 (FLAG-tagged) (scFv, VH-(G4S1)3-VL scFv from huLIB-STE, tested as crude periplasmic preparation; also called clone 4-48) scFv: ELQLVESGPVLVKPTDTLTLTCTVSGFSLNNPRMGVSWIRQPPGKTLEWLAHIFPSDAKAHSASLKSRLTISKDTSKSQVVPTMTNMDPVDTATYYCARILGEYYPPAWFDPWGQGTLVTVSSGGGGSGGGGSGGGGSELVMTQSPDSLAVSLGERATINCKSSQSVLYSSNNKNYLAWYQQKPGQPPKLLIYWASTRESGVPDRFSGSGSGTDFTLTISSLQAEDVAVYYCQQYLKIPYTFGQGTKVEIKTGDYKDDDDK |
| no binding | binds | binds | – | human anti-human CD3 scFv 3-148 (FLAG-tagged) (scFv, VH-(G4S1)3-VL scFv from huLIB-ST, tested as crude periplasmic preparation) scFv: ELQLVESGPGLVKPSGTLSLTCAVSGGSISSRNWWSWVRQPPGKGLEWIGDIYHSGSTNYNPSLKSRVTISVDKSKNQFSLKLSSVTAADTAVYYCASGYTSCRDAFDIWGQGTMVTVSSGGGGSGGGGSGGGGSELVMTQSPSSLSASVGDRVTITCRASQGIGNYLAWYQQKPGQPPKMLIYWASIRESGVPDRFSGSGSGTDFTLTISSLQAEDVAVYYCQQYYSNPQTFGQGTKVEIKTGDYKDDDDK |
| no binding | – | binds | binds | human anti-human CD3 scFv 3-550 (FLAG-tagged) (scFv, VH-(G4S1)3-VL scFv from huLIB-STE, tested as crude periplasmic preparation) scFv: ELQLVESGPGLVKPSQTLSLTCAISGDSVSSNSAAWNWIRQSPSRGLEWLGRTYYRSKWYNDYAVSVKSRITINPDTSKNQFSLQLNSVTPEDTAVYYCARDRRRIAARQYYGMDVWGQGTTVTVSSGGGGSGGGGSGGGGSELVLTQSPGTLSLSPGERATLSCRASQSVSSNYLAWYQQKPGQAPRLLIYGASSRATGIPDRFSGSGSGTDFTLTISSLQPEDVATYYCQKYNSAPLTFGGGTKVEIKTGDYKDDDDK |
| no binding | – | binds | binds | human anti-human CD3 scFv 3-190 (FLAG-tagged) (scFv, VH-(G4S1)3-VL scFv from huLIB-STE, tested as crude periplasmic preparation) scFv: ELQLVEWGAGLLKPSETLSLTCAVYGGSFSGYYWSWIRQPPGKGLEWIGEINHSGSTNYNPSLKSRVTISVDTSKNQFSLKLSSVTAADTAVYYCARGRGRFLGWLLGGSNWFDPWGQGTLVTVSSGGGGSGGGGSGGGGSELVMTQSPSSLSASVGDRVTITCRASQGISNYLNWYQQKPGKAPKLLIYDASNLETGVPSRFSGSGSGTDFTLTISSLQPEDFATYYCQQSYSTPYTFGQGTKVDIKTGDYKDDDDK |
